One test concerns the target human CGRP receptor (human, UniProt Q16602 23-461; O60894 27-148). The test is described as follows: cell-based or functional assay.
Another test concerns the target T1, human PAC1 receptor (human, UniProt P41586 21-468).
T1 sequence: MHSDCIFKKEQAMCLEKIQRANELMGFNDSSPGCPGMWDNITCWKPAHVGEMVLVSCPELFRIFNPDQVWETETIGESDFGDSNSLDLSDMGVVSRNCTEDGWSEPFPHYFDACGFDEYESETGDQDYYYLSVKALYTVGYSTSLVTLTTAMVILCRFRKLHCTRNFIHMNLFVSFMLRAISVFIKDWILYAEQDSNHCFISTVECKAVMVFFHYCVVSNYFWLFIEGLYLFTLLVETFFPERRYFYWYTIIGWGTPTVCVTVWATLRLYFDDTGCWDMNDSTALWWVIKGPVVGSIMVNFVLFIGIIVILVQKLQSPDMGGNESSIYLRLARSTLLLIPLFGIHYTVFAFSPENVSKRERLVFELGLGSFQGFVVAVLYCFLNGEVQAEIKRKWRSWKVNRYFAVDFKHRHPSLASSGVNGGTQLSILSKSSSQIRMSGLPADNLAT
Briefly: cell-based or functional assay.

Where a chain is given by its changes, count along the chain named.

Sequence of human CGRP receptor (Q16602 23-461 limits assumed, chain 1 of 2): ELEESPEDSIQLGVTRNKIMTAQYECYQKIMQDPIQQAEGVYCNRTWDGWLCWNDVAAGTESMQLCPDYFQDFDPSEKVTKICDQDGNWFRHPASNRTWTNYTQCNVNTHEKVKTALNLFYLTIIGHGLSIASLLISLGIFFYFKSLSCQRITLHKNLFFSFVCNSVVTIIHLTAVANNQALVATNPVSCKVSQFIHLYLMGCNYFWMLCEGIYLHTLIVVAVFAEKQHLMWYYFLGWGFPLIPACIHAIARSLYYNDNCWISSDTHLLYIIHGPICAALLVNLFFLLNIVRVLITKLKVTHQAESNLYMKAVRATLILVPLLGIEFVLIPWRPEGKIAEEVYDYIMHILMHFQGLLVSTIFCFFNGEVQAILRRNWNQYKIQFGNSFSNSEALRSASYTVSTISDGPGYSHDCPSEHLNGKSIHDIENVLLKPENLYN
Sequence of human CGRP receptor (O60894 27-148 limits assumed, chain 2 of 2): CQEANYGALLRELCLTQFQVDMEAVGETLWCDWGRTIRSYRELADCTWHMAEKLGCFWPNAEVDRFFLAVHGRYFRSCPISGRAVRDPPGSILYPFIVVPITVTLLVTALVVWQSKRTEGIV

B1: iPS:327106 (bispecific antibody, human IgG1, kappa, lambda, N297G)
light 1: not shown
heavy 1: not shown
light 2: not shown
heavy 2: EVQLVESGGGLVKPGGSLRLSCAASGFTFGNAWMSWVRQAPGKELEWVGRIKSKTDGGTTDYAAPVKGRFTISRDDSKNTLYLQMNSLKTEDTAVYFCTTDRTGYSISWSSYYYYYGMDVWGQGTTVTVSSASTKGPSVFPLAPSSKSTSGGTAALGCLVKDYFPEPVTVSWNSGALTSGVHTFPAVLQSSGLYSLESVVTVPSSSLGTQTYICNVNHKPSNTKVDKKVEPKSCDKTHTCPPCPAPELLGGPSVFLFPPKPKDTLMISRTPEVTCVVVDVSHEDPEVKFNWYVDGVEVHNAKTKPCEEQYGSTYRCVSVLTVLHQDWLNGKEYKCKVSNKALPAPIEKTISKAKGQPREPQVYTLPPSRKEMTKNQVSLTCLVKGFYPSDIAVEWESNGQPENNYKTTPPVLKSDGSFFLYSKLTVDKSRWQQGNVFSCSVMHEALHNHYTQKSLSLSPGK
As to B1, in the test with human CGRP receptor, the “% inhibition of human CGRPR” value is 71%. Also, the “% inhibition of human PAC1” value with human PAC1 receptor is 6%.

B2: iPS:327105 (bispecific antibody, human IgG1, kappa, lambda, N297G)
light 1: DIQMTQSPSSLSASVGDRITITCRASQSISRYLNWYQQKPGKAPKLLIYAASSLQSGIPSRFSGSGSGTDFTLTINSLQPEDFATYFCQQSYSPPFTFGEGTKVDIKRTVAAPSVFIFPPSDEQLKSGTASVVCLLNNFYPREAKVQWKVDNALQSGNSQESVTEQDSKDSTYSLESTLTLSKADYEKHKVYACEVTHQGLSSPVTKSFNRGEC
heavy 1: not shown
light 2: not shown
heavy 2: B1 heavy 2
As to B2, the “% inhibition of human CGRPR” value with human CGRP receptor was 81%. Besides, in the test with human PAC1 receptor, the “% inhibition of human PAC1” value is 63%.

B3: iPS:327108 (bispecific antibody, human IgG1, kappa, lambda, N297G)
light 1: EIVLTQSPATLSLSPGERATLSCRASQSVGRSLHWYQQKPGQAPRLLIKYASQSLSGIPARFSGSGSGTDFTLTISSLEPEDFAVYYCHQSSRLPFTFGEGTKVDIKRTVAAPSVFIFPPSDEQLKSGTASVVCLLNNFYPREAKVQWKVDNALQSGNSQESVTEQDSKDSTYSLESTLTLSKADYEKHKVYACEVTHQGLSSPVTKSFNRGEC
heavy 1: not shown
light 2: not shown
heavy 2: B1 heavy 2
Turning to B3, in the test with human CGRP receptor, the “% inhibition of human CGRPR” value turned out to be 66%. The “% inhibition of human PAC1” value in the test with human PAC1 receptor was determined as 74%.

B4: iPS:327093 (bispecific antibody, human IgG1, kappa, N297G)
light 1: DIQLTQSPSFLSASVGDRVTITCRASQSIGRSLHWYQQKPGKAPKLLIKYASQSLSGVPSRFSGSGSGTEFTLTISSLQPEDFATYYCHQSSRLPFTFGPGTKVDIKRTVAAPSVFIFPPSDEQLKSGTASVVCLLNNFYPREAKVQWKVDNALQSGNSQESVTEQDSKDSTYSLESTLTLSKADYEKHKVYACEVTHQGLSSPVTKSFNRGEC
heavy 1: not shown
light 2: EIVLTQSPGTLSLSPGERATLSCRASQSVSSGYLTWYQQKPGQAPRLLIYGASSRATGIPDRFSGSGSGTDFTLTISRLEPEDFAVYYCQQYGNSLSRFGQGTKLEIKRTVAAPSVFIFPPSDEQLKSGTASVVCLLNNFYPREAKVQWKVDNALQSGNSQESVTEQDSKDSTYSLKSTLTLSKADYEKHKVYACEVTHQGLSSPVTKSFNRGEC
heavy 2: not shown
In the case of B4, the “% inhibition of human CGRPR” value with human CGRP receptor amounted to 70%. Further, in the test with human PAC1 receptor, the “% inhibition of human PAC1” value was 68%.

B5: iPS:327094 (bispecific antibody, human IgG1, kappa, N297G)
light 1: B3 light 1 with E100P
heavy 1: not shown
light 2: B4 light 2
heavy 2: not shown
B5: in the test with human CGRP receptor, the “% inhibition of human CGRPR” value turned out to be 73%. For the same molecule, in the test with human PAC1 receptor, the “% inhibition of human PAC1” value is 91%.

B6: iPS:327103 (bispecific antibody, human IgG1, kappa, lambda, N297G)
light 1: B4 light 1
heavy 1: not shown
light 2: not shown
heavy 2: not shown
For the molecule B6, in the test with human CGRP receptor, the “% inhibition of human CGRPR” value was 82%. In addition, the “% inhibition of human PAC1” value in the test with human PAC1 receptor came to 21%.

B7: iPS:327111 (bispecific antibody, human IgG1, kappa, lambda, N297G)
light 1: B4 light 1
heavy 1: not shown
light 2: not shown
heavy 2: not shown
Take B7: the “% inhibition of human CGRPR” value in the test with human CGRP receptor amounted to 88%. In addition, in the test with human PAC1 receptor, the “% inhibition of human PAC1” value amounted to 65%.

B8: iPS:327107 (bispecific antibody, human IgG1, kappa, lambda, N297G)
light 1: B4 light 1 with P100E
heavy 1: not shown
light 2: not shown
heavy 2: B1 heavy 2
For the molecule B8, the “% inhibition of human CGRPR” value with human CGRP receptor was determined as 76%. Also, the “% inhibition of human PAC1” value in the test with human PAC1 receptor worked out at 22%.

B9: iPS:327025 (bispecific antibody, human IgG1, kappa, N297G)
light 1: B4 light 1 with P100E
heavy 1: not shown
light 2: B4 light 2 with Q101K
heavy 2: not shown
As for B9, the “% inhibition of human CGRPR” value in the test with human CGRP receptor stood at 76%. Also, in the test with human PAC1 receptor, the “% inhibition of human PAC1” value was 21%.

B10: iPS:327104 (bispecific antibody, human IgG1, kappa, lambda, N297G)
light 1: B3 light 1 with E100P
heavy 1: not shown
light 2: not shown
heavy 2: not shown
Consider B10, for which the “% inhibition of human CGRPR” value with human CGRP receptor was found to be 81%. The “% inhibition of human PAC1” value with human PAC1 receptor was 95%.

B11: iPS:326654 (bispecific antibody, human IgG2, kappa, lambda)
light 1: B3 light 1 with E100P
heavy 1: QVQLVESGGGVVQPGRSLRLSCAASGFTFSRFAMHWVRQAPGKGLEWVAVISYDGGNKYYAESVKGRFTISRDNSKNTLYLQMNSLRAEDTALFYCARGYDVLTGYPDYWGQGTLVTVSSASTKGPSVFPLAPCSRSTSESTAALGCLVKDYFPEPVTVSWNSGALTSGVHTFPAVLQSSGLYSLKSVVTVPSSNFGTQTYTCNVDHKPSNTKVDKTVERKCCVECPPCPAPPVAGPSVFLFPPKPKDTLMISRTPEVTCVVVDVSHEDPEVQFNWYVDGVEVHNAKTKPREEQFNSTFRVVSVLTVVHQDWLNGKEYKCKVSNKGLPAPIEKTISKTKGQPREPQVYTLPPSREEMTKNQVSLTCLVDGFYPSDIAVEWESNGQPENNYDTTPPMLDSDGSFFLYSDLTVDKSRWQQGNVFSCSVMHEALHNHYTQKSLSLSPGK
light 2: not shown
heavy 2: not shown
On to B11, for which, in the test with human CGRP receptor, the “% inhibition of human CGRPR” value came to 79%. For the same molecule, the “% inhibition of human PAC1” value in the test with human PAC1 receptor amounted to 99%.

The record behind these values is patent US20170306033A1 (Amgen, published 2017).
